This is an account of results in patent publication US20240141062A1 (published 2024).

Assay [1] concerns the target T1, human CD47 on cells (human, UniProt Q08722 19-323).
T1 construct: whole, on cells; Endogenous CD47 of the cells; also called CD47 on Daudi cells; CD47 on RBCs
The assay is described as follows: flow cytometry on human red blood cells.

The target of assay [2] is T2, human CD38 on tumor cells (human, UniProt P28907 1-300).
T2 construct: whole, on cells; Endogenous CD38 of the cell lines; also called CD38 on Raji-CD47KO cells
The assay is described as follows: flow cytometry on Raji-CD47KO cells.

B1: BEAT CD38/CD47-60 (bispecific antibody, human IgG1, kappa)
heavy 1: EVQLVESGGGLIQPGGSLRLSCAASGFTLSRNTMHWVRQAPGKGLEWVSVIYQSGVTRYADSVKSRFTISRDNSKNTLYLQMNSLRAEDTAVYYCARGRYGVAGGPGYAFDVWGQGTLVTVSSASTKGPSVFPLAPSSKSTSGGTAALGCLVKDYFPEPVTVSWNSGALTSGVHTFPAVLQSSGLYSLSSVVTVPSSSLGTQTYICNVNHKPSNTKVDKKVEPKSCDKTHTCPPCPAPELLGGPDVFLFPPKPKDTLMISRTPEVTCVVVDVSHEDPEVKFNWYVDGVEVHNAKTKPREEQYNSTYRVVSVLTVLHQDWLNGKEYKCKVNNKALPAPEEKTISKAKGQPREPAVYTLPPSREEMTKNQVKLVCLVTGFYPSDIAVEWESSGQPENNYYTTPPMLDSDGSFSLVSWLNVDKSRWQQGNIFSCSVMHEALHNRFTQKSLSLSPG
heavy 2: not shown
light: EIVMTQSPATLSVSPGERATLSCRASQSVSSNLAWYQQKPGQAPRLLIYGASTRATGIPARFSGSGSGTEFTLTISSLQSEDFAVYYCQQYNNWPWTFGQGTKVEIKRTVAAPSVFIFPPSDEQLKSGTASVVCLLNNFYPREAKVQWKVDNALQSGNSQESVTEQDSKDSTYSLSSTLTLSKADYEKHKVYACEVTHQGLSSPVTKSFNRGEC
notes: 2+1 biparatopic BEAT: anti-CD47-H2 arm on BEAT (A); BEAT (B) carries Fc distal anti-CD38-B6-D9 and Fc proximal anti-CD38-E2-RecA Fabs; BEAT (A): S239D + I332E + S324N, BEAT (B): S324N; also called BEAT CD38/47-60; BEAT 38/47-60
In the case of B1, the binding result in assay [1] and in assay [2] was “binds” each time.
